# Results: the nanobody polyreactivity screen of Harvey et al. (2022)
# Assay: yeast display, Sf9 membrane polyspecificity reagent, FACS + sequencing; frameworks hold sequencing errors
# Method in brief: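 Polyreactivity labels are assigned by the sorting gate from which each nanobody was recovered. The gates were low and high (top ~1%), set on anti-HA fluorescence for expression and streptavidin fluorescence for reagent binding. Before sorting, galactose-induced (36–48 hours) yeast display cells were stained for 1 hour at 4 °C with 10% biotinylated, detergent-solubilized Sf9 membrane reagent.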
row,Sequence,polyreactivity (PSR sort gate)
1,QVQLVESGGGLVQAGGSLSLSCAASGSILAVYTMGWYRQAPGTVRELVAAITVSSGRTYYADSVKGRFTISRDNAKNTVYLQMNSLKPEDTSVYYCAALYWRSKLRPYEYWGQGTQVTVSS,high polyreactivity
2,QVQLVESGGGLVQARGSLRLSCAASGSIFDDYAMGWYRQAPGKERELVAAISSSGTSTYYADSVKGRFTISRDNAKNTVYLQLNSLKPEDTAVYYCAARSAILKSGYLMEYWGEGTQVTVSS,low polyreactivity
3,QVQLVESGGGLVQAGGCLRLSCAASGSTLDSNAMGWYREAPGKERELVAGIDWCGGSTYADSVKGRFTISRDNAKNTVELQMTSLKPEDTAVYYCAKVSRYVQPYSRFDYWGQGTQVTVSS,low polyreactivity
4,QVQLVESGGGLVQAGGSLRLSCAASGFNFNKNAMGWYRQAPGKERELVAAISGTGGSTYYADSVKVRFTISRDNAKNTVYLQMNSLKPEDTAVYFCASRRYRQFSTGGQPGYYWGQGTLVTVSS,high polyreactivity
5,QVQLVESGGGLVQAGGSLRLSCAASGRTFYYNAMGWYRQAPGKERELVAAITYSGGSTYYADSVKGRFTISRDNAKNTVYLQMNSLKPEDTAVYYCAADVYRPAGNWEHYYWGQGNQVTVSS,low polyreactivity
6,QVQLVESGGGLVQAGGSLRLSCAASGFIFGQYAMGWYRQAPGKERELVAAISWSGGRTNYADSVKGRFTISRDNAKYTVYLQMNSLKPEDTAVSYCAARKGKYPQYTYGYWGQGTQVSVSS,high polyreactivity
7,QVQLVESGGGLVQAGGSLRLSCAASGRIFGGYAMGWYRQAPGKERELVAAITFRSGTTYYADSVKGRFTISRDNAKNTVYLQMNSLKPEDTAVYYCAARWGPYAFTYVRTYDYWGQGTQVTVSS,low polyreactivity
8,QVQLVESGGGLVQAGGSLRLSCAASGSNSRVNAMGWYRQATWKERELVASITKSTGSTYYADSVKGRFTISRDNAKNTVYLQMNSLKPEDTAVYYCAKAASYPVRAFYYWGLGTQVTVSS,high polyreactivity
9,QVQLVESGGGLVQAGRSLRLSCAASGSTFYYYTMGWYRQEPGKERELVAAISFIGGSTYYADSVKGRFTISRDNAKNTVYLQMNSLKPEDTAVYYCAAESYPLSYSSATLSPSYEYWGQGTQVTVSS,low polyreactivity
10,QVQLVESGGGLVQAGGSLRLSCAPSGSIFKQYAMGWYRQAPGKERELVARITGSGGSTYYTDSVKGRFTISRDNAKNTVYLQMNSLKPEDTAVYYCNAGGRDAGYDYWGQGTQVTVSS,low polyreactivity
11,QGQLVESGGGLVQAGGSLRLSCAASGFTFSYNVMGWYRQAPGKERELVPAINWSGGRTYYADSVKGRFTISRDNAKNTVYLQMNSLKPEDTAVYYCAARVYRGTARLIYDYWGQGTQVTVSS,high polyreactivity
12,QVHLVESGGGLVQAGGSLRLSCAASGFTFGPYAMGWYRQAPGKERELVAGITWSGASTYYADSVKGRFTISRDNAKNTVYLQMNSLKPEDTAVYYCARYYRLGSRYDYWGQGTQVTLSS,low polyreactivity
13,QVQLQESGGGLVLAGGSLRLSCSASGNISVYGSMGWYRQAPGKEREFVATIDPGTNTNYADSVKDRFTISRDNAKNTVYLQMNSLKPVDTAVYFCAVEAGSDWPYRYWGQGTQVTVSS,low polyreactivity
14,QVQLVESGGGLVQAGGSLRLSCAASGSTFSWYAMGWYRQAPGKERELVAAITSGGSTQYADSVKGRFTISRDNAKNTVYLQMNSLKPEDTAVYYCATRRYKWGVRYDYWGQGTQVTVSS,high polyreactivity
15,QVQLVESGGGLVQAGGSLRLSCSASGSIFVRNFMGGYRQSPGKERELVAGISWNGGSTFYADSVKGRFTISRDNAKNTVYLQMNSLKPEDTAVYYCAARGRHSVYYSFPYYYWGQGTQVTVSS,low polyreactivity
16,QVQLVESGGGLVQAGGRLRLSSAASGSIFDLYAMGWYRQAPGKERELVASIRYSGGRTYYADSVKGRFTISRDNAKNSVYLQMNSLNPEDTAFYYCNRDGGYTFIMDYWGQGTQVTVSS,low polyreactivity

row,Sequence,polyreactivity (PSR sort gate)
1,QVQLVESGGGLVQAGGSLRLSCAASGFIFWWYAMGWYRQAPGKERELVATITASVGSTNYADSVKGRFTISRDTAKNTVYLQMNSLKPEDTAVYYCATDIIGAIRDWDHTRMDYWGQGTQVTVSS,low polyreactivity
2,QVQLVESGGGLVQAGGSLRLSCAASGTTFYNYAMGWYRQAPGKERELVAAITSSGGSTYYADSVKGRFTISRDNAKNTVYLQMNSLKPEDTAVYYCNAVDGYGLVHSISTYEMDYWGQGTQVTVSS,low polyreactivity
3,QVQLVESCGCLVQAVGSLRLSCAASRFIFRLYAMVWYRQAPGKERELVAAISSGTSTYYADSVKVRFTISRDNAKNTVYLQMNSLKPEETEVYYCAAVPRVNWSRYVYFWYDYWGEGTQVTVSS,high polyreactivity
4,QVQLVESGGGLVQSGGSLRLSCAPSGRIFAGYTMGCYRQAPGKERELVAAISWSGGRTYYADSVKGRFTISRDNAKNTVYLQMNSLKPEDTAVYYCAVGFRTLHGDYGYWGQGTQVTVSS,high polyreactivity
5,QVQLVESGGGLVQAGGSLRLSCAASGIIFANYAMGWYRQAPGKERELVAAITSSGSTYYADSVKGRFTISRDNAKNTVYLQMNSLKPEDTAVYYCAARRRGRFYYWGQGTQVTVSS,high polyreactivity
6,QVQLVESGGGLVHAGGSLRLSCAASGFSFNTYAMGWYRQAPGKERELVADISSGGSTNYADSVKGRFTISRDNAKNTVFLQMNSLKPEDTAVYYCSADYYFLDWYDYWGQGTQVSVSS,low polyreactivity
7,QVQLVESGGGLVQAGGSLRLSCAASGRIFTYYAMGWYRQAPGKERELVATISSSGSTNYADSVKGRFTISRDNAKNTVYLQMNSLKPEDTAVYYSAKKTRRRYDVKYDYWGQGTQVTVSS,low polyreactivity
8,QVQLVEKGGGLVQAGGSLRLSCAASGYIFRFYTKRWYRQAPGKERELVASITRSGGSTYYADSVKGRFTFSRENAKNTVYLQKNSLKPEDTAVYYCNARKTVGMDYWGQGTQVTVSS,low polyreactivity
9,QVQLVESGGGLVQAGGSLRLSCAASGSIFHYYAMGWYRQAPGKERELVAAINSSGGSRTYYADSVKGRFTISRDNAKNTVYLQMNSLKPEDTAVYYCAAARDVFLGLQIWYWYGGDYWGQGTQVTVSS,low polyreactivity
10,QVQLVESGGGLFQAGGSLRLSCAASGFTFSNYAMGWYRKAPGKERELVAAITRRGGRTRYADSVKGRFTISRDNAKNTVYLQMNSLKPEDTAVYYCARSRYRYIVTTLYLYDYWGQGTQVTVSS,high polyreactivity
11,QVQLVESGGGLVQAGGSLRLSCVASGRTFSRYAMGWYRPAPGKERELVAAISRRGGSTFYADSVKGRFTISRDNAKNTVYLQMNSLKPEDTAVYYCAAGYITWGSGNWVVTPYDYWGQGTQVTVSS,high polyreactivity
12,QVQLVESGGGIVQAGVSLRLSCAASGSTFRDYAMGWSRPAPGKERELVAAISNSGGRTYYADSVKGRFTISRDNAKNTVYLQMYSLKPEDTAVYYCNAGRQTKWGQGTQVTVSS,high polyreactivity
13,QVQLVESGGGLVQAGGSLRLSCAASGSTFKRNVMGWYRQAPGKERELVAAISRSTTSTYYADSVKGRFTISRDNAKNTVYLQMNSLKPEDTAVYYCATPHRYRVDYWGQGTQVTVSS,high polyreactivity
14,QVQLVESGGGLVQAGGGLRLSFPASGRTFTVNAMGWSRQSPGKERELVATITYGGGSRYYADSVKGRFTISRDNAKNSVYLQMNSLKPEDTAVYYCAARSDNYHVYYFKRWGKYYSWGQGTQVTVSS,low polyreactivity
15,QVQLVESGGGLVQAGGSLRLSCAPSGTIFYSYAMGWYRQAPGKERELVAAISQRGGSTYYADSVKGRFTISRDNAKNTVYLQMNSLKPEDTAVYYCNAVYRRAQFLYGYDYWGQGTQVTVSS,high polyreactivity
